B1: Azoarcus group I ribozyme (parent)
chain: GUGCCUUGCGCCGGGAAACCACGCAAGGGAUGGUGUCAAAUUCGGCGAAACCUAAGCGCCCGCCCGGGCGUAUGGCAACGCCGAGCCAAGCUUCGGCGCCUGCGCCGAUGAAGGUGUAGAGACUAGACGGCACCCACCUAAGGCAAACGCUAUGGUGAAGGCAUAGUCCAGGGAGUGGCGAAAGUCACACAAACCGG

Variants of: B1
Assay: reverse-splicing fitness (ratio to wild type); higher = more active; in vitro selection; Mg2+ level not given
Method in brief: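 An in vitro group I ribozyme library with randomized positions was T7-transcribed and gel-purified. In triplicate, 10 pmol RNA in EPPS pH 7.5 was reacted with 50 pmoles of a 30-nt RNA substrate for 1 h at 37 °C across several added MgCl2 levels (1–48 mM), then stopped with EDTA. Products were reverse transcribed from a substrate-complementary primer, PCR-amplified and sequenced (HiSeq 4000). Fitness is a variant's read proportion after selection over that before, normalised to wild type.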

In order of falling reverse-splicing fitness:
1. C82A A111C A120G U176C  0.0255
2. C82A A111C A120U A145G  0.023
3. C82A A111C A120U  0.0221
4. C82A A111C A120G C169G U176C  0.0214
5. C82A A111C A120U A145C  0.0196
6. C82A A111C A120G C169A U176C  0.0177
7. C82A A111C A120G C169G U176A  0.0165
8. C82A A111C A120G C169U U176C  0.0145
9. C82A A111C A120G C169U U176A  0.0144
10. C82A A111C A120G U176A  0.0144
11. C82A A111C A120U A145C C150U  0.00922
12. C82A A111C A120U A145G C150A  0.00897
13. C82A A111C A120U A145G C150A C169A U176A  0.00894
14. C82A A111C A120G C169G  0.00872
15. C82A A111C A120G C169U  0.00841
16. C82A A111C A120U A145C U176C  0.00818
17. C82A A111C A120U A145C C150G  0.00708
18. C82A A111C A120U A145G C150A C169A  0.00708
19. C82A A111C A120U A145C U176A  0.00599
20. C82A A111C A120G U176G  0.00584
21. C82A A111C A120G C169U U176G  0.00559
22. C82A A111C A120U A145G C150A C169A U176C  0.00537
23. C82A A111C A120U A145C C150A U176C  0.00528
24. C82A A111C A120U A145C C150U U176C  0.00525
25. C82A A111C A120U A145C C150G C169U  0.005
26. C82A A111C A120G C169G U176G  0.00494
27. C82A A111C A120G C169A U176G  0.00465
28. C82A A111C A120U A145C C150U U176A  0.00424
29. C82A A111C A120U A145C C150G U176C  0.00415
30. C82A A111C A120U A145C C150U C169G U176A  0.00406
31. C82A A111C A120U A145C C150A  0.00399
32. C82A A111C A120U A145C C169U  0.00399
33. C82A A111C A120U A145C C150G C169U U176A  0.00398
34. C82A A111C A120U A145C C150A U176A  0.00393
35. C82A A111C A120U A145C C150U C169U  0.00379
36. C82A A111C A120U A145C C150U C169A U176C  0.00378
37. C82A A111C A120U A145C C150U C169G  0.00378
38. C82A A111C A120U A145C C150U C169A  0.00362
39. C82A A111C A120U A145C C150A C169G U176A  0.0036
40. C82A A111C A120U A145C C150A C169U U176A  0.0036
41. C82A A111C A120U A145C C150G C169A  0.00359
42. C82A A111C A120U A145C C150A C169U  0.00355
43. C82A A111C A120U A145C C150G C169G  0.00355
44. C82A A111C A120U A145C C150G C169A U176A  0.00353
45. C82A A111C A120U A145C C150G C169U U176C  0.00347
46. C82A A111C A120U A145C C150A C169G U176C  0.00345
47. C82A A111C A120U A145C C150G U176A  0.00333
48. C82A A111C A120U A145C C150U C169U U176A  0.00329
49. C82A A111C A120U A145C C169U U176C  0.00326
50. C82A A111C A120U A145C C150G C169G U176C  0.00325
51. C82A A111C A120U A145C C150G C169G U176G  0.00318
52. C82A A111C A120U A145C C169G U176C  0.00316
53. C82A A111C A120U A145C C150U C169A U176A  0.00309
54. C82A A111C A120U A145C C150A C169G  0.00308
55. C82A A111C A120U A145C C169A U176C  0.00295
56. C82A A111C A120U A145C C169G  0.00295
57. C82A A111C A120U A145C C169G U176A  0.00292
58. C82A A111C A120U A145C C150A C169A U176A  0.00291
59. C82A A111C A120U A145C C150G C169G U176A  0.00291
60. C82A A111C A120U A145C C150A U176G  0.00289
61. C82A A111C A120U A145C C150U C169G U176G  0.00286
62. C82A A111C A120U A145C C150U C169U U176C  0.00286
63. C82A A111C A120U A145C C169A  0.00286
64. C82A A111C A120U A145C C150G C169U U176G  0.00285
65. C82A A111C A120U A145C C150U C169U U176G  0.00284
66. C82A A111C A120U A145C C150A C169U U176C  0.00283
67. C82A A111C A120U A145C C150A C169A  0.00282
68. C82A A111C A120U A145C C150U U176G  0.0028
69. C82A A111C A120U A145C C150A C169A U176G  0.00275
70. C82A A111C A120U A145C C150G C169A U176G  0.00275
71. C82A A111C A120U A145C C169A U176A  0.00272
72. C82A A111C A120U A145C C169U U176A  0.00272
73. C82A A111C A120U A145C U176G  0.00266
74. C82A A111C A120U A145C C150G U176G  0.00265
75. C82A A111C A120U A145C C150U C169G U176C  0.00264
76. C82A A111C A120U A145C C150A C169U U176G  0.00263
77. C82A A111C A120U A145C C150G C169A U176C  0.00263
78. C82A A111C A120U A145C C150A C169A U176C  0.00256
79. C82A A111C A120U A145C C169G U176G  0.00255
80. C82A A111C A120U A145C C150U C169A U176G  0.00233
81. C82A A111C A120U A145C C169U U176G  0.00232
82. C82A A111C A120U A145C C169A U176G  0.00214
83. C82A A111C A120U A145C C150A C169G U176G  0.00211

From the RNAGym collection of RNA variant scans (doi:10.1093/molbev/msab373)
